Data reported in the supplement of paper PMC10567573.

B1: SMARCE1 (parent)
chain: YHNSPAYLAYINAKSRAEAALEEE

Variants of: B1
Test: protein stability index of a GFP-peptide fusion (GPS, HEK-293T) (PSI 1-6); higher = more stable
Details: c terminus: a fixed tail appended
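Further: lentivirally expressed fusions sorted by FACS into six bins by GFP to DsRed ratio, PSI derived from sequencing read proportions per bin multiplied by bin number.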

| Variant | protein stability index |
| --- | --- |
| A17R | 1.68 |
| A17S | 2.06 |
| E22H | 2.83 |
| E22A | 2.7 |
| E22K | 1.86 |
| E22T | 2.36 |
| E22G | 2.67 |
| E22M | 2.01 |
| E22P | 2.73 |
| E22Q | 1.91 |
| E22I | 2.59 |
| E22Y | 1.9 |
| E22R | 2.25 |
| E22V | 2.73 |
| E22D | 2.21 |
| E22F | 2.04 |
| E22W | 2.29 |
| E22L | 4.41 |
| E22C | 2.17 |
| E22S | 2.41 |
| E22N | 2.44 |
| E23Y | 1.58 |
| E23W | 1.81 |
| E23P | 2.58 |

| Variant | protein stability index |
| --- | --- |
| E23G | 3.34 |
| E23M | 1.52 |
| E23K | 2.05 |
| E23N | 1.57 |
| E23T | 3.01 |
| E23I | 2.79 |
| E23Q | 1.59 |
| E23F | 2.31 |
| E23L | 1.59 |
| E23V | 2.44 |
| E23A | 2.34 |
| E23C | 2.79 |
| E23R | 1.82 |
| E23H | 2.13 |
| E23D | 1.54 |
| E23S | 1.54 |
| A19W | 2.48 |
| A19Y | 2.46 |
| A19C | 2.84 |
| A19D | 2.33 |
| A19S | 2.06 |
| A19E | 2.69 |
| A19V | 2.58 |
| A19K | 2.05 |

| Variant | protein stability index |
| --- | --- |
| A19Q | 2.12 |
| A19L | 2.49 |
| A19M | 2.24 |
| A19F | 2.31 |
| A19T | 2.41 |
| A19N | 2.43 |
| A19P | 1.92 |
| A19I | 2.05 |
| A19H | 2.02 |
| A19G | 2.56 |
| A19R | 2.59 |
| R16Q | 2.17 |
| R16M | 1.81 |
| R16K | 2.4 |
| R16N | 1.35 |
| R16F | 1.77 |
| R16A | 2.04 |
| R16C | 2.72 |
| R16D | 2.4 |
| R16H | 2.15 |
| R16Y | 2.82 |
| R16G | 1.74 |
| R16V | 2.99 |
| R16I | 2.2 |

| Variant | protein stability index |
| --- | --- |
| R16L | 2.56 |
| R16T | 2.55 |
| R16E | 2.33 |
| R16P | 2.12 |
| R16S | 2.43 |
| E24F | 2.59 |
| E24G | 1.95 |
| E24M | 2.55 |
| E24R | 2.71 |
| E24P | 1.45 |
| E24N | 2.47 |
| E24S | 3.47 |
| E24A | 2.12 |
| E24V | 2.19 |
| E24T | 2.17 |
| E24I | 1.88 |
| E24Y | 1.71 |
| E24H | 1.91 |
| E24C | 2.38 |
| E24W | 1.63 |
| E24L | 1.56 |
| E24K | 2.91 |
| E24D | 2.3 |
| E24Q | 3.45 |

| Variant | protein stability index |
| --- | --- |
| S15G | 2.11 |
| S15R | 2.04 |
| S15L | 2.42 |
| S15W | 2.08 |
| S15F | 2.06 |
| S15E | 2.29 |
| S15H | 2.59 |
| S15I | 2.25 |
| S15Y | 1.62 |
| S15Q | 2.17 |
| S15P | 1.61 |
| S15C | 3.03 |
| S15N | 2.29 |
| S15T | 2 |
| S15D | 2.06 |
| S15M | 2.14 |
| S15V | 2.26 |
| S15K | 2.31 |
| S15A | 2.53 |
| A9H | 2.51 |
| A9P | 3.18 |
| A9N | 2.39 |
| A9I | 2.81 |
| A9Q | 1.84 |

| Variant | protein stability index |
| --- | --- |
| A9Y | 1.74 |
| A9S | 2.96 |
| A9R | 1.96 |
| A9K | 1.68 |
| A9L | 1.5 |
| A9T | 2.24 |
| A9V | 2.29 |
| A9M | 1.38 |
| A9W | 2.21 |
| A20R | 2.89 |
| A20H | 2.51 |
| A20L | 2.15 |
| A20Q | 1.79 |
| A20M | 1.32 |
| A20I | 2.25 |
| A20D | 2.97 |
| A20G | 3.01 |
| A20W | 1.93 |
| A20T | 1.61 |
| A20F | 1.69 |
| A20V | 2.56 |
| A20S | 1.84 |
| A20C | 2.27 |
| A20Y | 3.29 |

| Variant | protein stability index |
| --- | --- |
| A20K | 2.71 |
| A20E | 2.32 |
| A20N | 2.42 |
| A20P | 2.66 |
| E18T | 1.82 |
| E18D | 2.4 |
| E18G | 2.31 |
| E18N | 2.21 |
| E18Q | 1.51 |
| E18K | 3.05 |
| E18P | 1.88 |
| E18C | 2.46 |
| E18Y | 2.15 |
| E18L | 1.61 |
| E18R | 1.97 |
| E18M | 2.11 |
| E18V | 2.76 |
| E18A | 2.58 |
| E18S | 2 |
| E18I | 3.18 |
| E18H | 2.33 |
| E18W | 2.76 |
| E18F | 2.37 |
